In patent US20230303994:
Changes are numbered by the printed parent chain.

B1: trypsin variant SEQ ID NO: 53 (protein)
chain: IVGGYTCAANSIPYQVSLNSGSHRCGGSLINSQWVVSAAHCYKPRIQVRLGEHNIDVLEGNEQFINAAKIITHPNFNGNTLDNDIMLIKLSSPATLNSRVATVSLPRSCAAAGTECLISGWGNTKSSGSSYPSLLQCLKAPVLSDSSCKSSYPGQITGNMICVGFLEGGKDACQGDSGGPVVCNGQLQGIVSSGYGCAQKNKPGVYTKVCNYVNWIQQTIAAN
B2: trypsin variant SEQ ID NO: 86 (protein)
chain: B1 chain with G78P, R99A, R107T, K125S, Y131M
B3: trypsin variant SEQ ID NO: 91 (protein)
chain: B1 chain with D56H, G78P, R99A, R107T, K125S, Y131M
B4: trypsin variant SEQ ID NO: 10 (protein)
chain: B1 chain with P44S, R99T
B5: trypsin variant SEQ ID NO: 81 (protein)
chain: B1 chain with P44S, D56H, G78P, R99H, R107T, K125A, Y131M
B6: trypsin variant SEQ ID NO: 77 (protein)
chain: B1 chain with D56H, R99H, R107T, K125C, Y131M
B7: trypsin variant SEQ ID NO: 74 (protein)
chain: B1 chain with P44S, G78P
B8: trypsin variant SEQ ID NO: 57 (protein)
chain: B1 chain with P44S, D56H
B9: trypsin variant SEQ ID NO: 9 (protein)
chain: B1 chain with P44S, R99Y
B10: trypsin variant SEQ ID NO: 83 (protein)
chain: B1 chain with D56H, G78P, R99N, R107T, K125S, Y131M
B11: trypsin variant SEQ ID NO: 79 (protein)
chain: B1 chain with D56H, G78P, R99H, K125A, Y131M
B12: trypsin variant SEQ ID NO: 89 (protein)
chain: B1 chain with D56H, G78P, R99H, R107T, K125A, Y131M
B13: trypsin variant SEQ ID NO: 78 (protein)
chain: B1 chain with P44S, D56H, G78P, R99H, R107T, K125C
B14: trypsin variant SEQ ID NO: 87 (protein)
chain: B1 chain with D56H, G78P, R99H, R107T, K125S, Y131M
B15: trypsin variant SEQ ID NO: 82 (protein)
chain: B1 chain with D56H, G78P, R99H, K125C, Y131M
B16: trypsin variant SEQ ID NO: 51 (protein)
chain: B1 chain with R24K, P44S
B17: trypsin variant SEQ ID NO: 90 (protein)
chain: B1 chain with D56H, G78P, R99H, R107T, K125A, Y131M, A172S
B18: trypsin variant SEQ ID NO: 84 (protein)
chain: B1 chain with D56H, G78P, R99N, R107T, K125S, Y131M, A172S
B19: trypsin variant SEQ ID NO: 73 (protein)
chain: B1 chain with P44S, G78A
B20: trypsin variant SEQ ID NO: 80 (protein)
chain: B1 chain with P44S, D56H, G78P, R99H, R107T, K125S, Y131M
B21: trypsin variant SEQ ID NO: 85 (protein)
chain: B1 chain with D56H, G78P, R99H, R107T, K125C, Y131M
B22: trypsin variant SEQ ID NO: 88 (protein)
chain: B1 chain with D56H, G78P, R99H, R107T, K125S, Y131M, A172S
B23: trypsin variant SEQ ID NO: 56 (protein)
chain: B1 chain with P44S, D56N

Molecular target: pre-pro-human insulin

Protein	Activity PPI cleavage	Selectivity [%]
B1	yes	>90
B2	yes	>90
B3	yes	>90
B4	yes	>90
B5	yes	>90
B6	yes	>90
B7	yes	>90
B8	yes	>90
B9	yes	>90
B10	yes	>90
B11	yes	>90
B12	yes	>90
B13	yes	>80
B14	yes	>90
B15	yes	>90
B16	yes	>70
B17	yes	>90
B18	yes	>90
B19	yes	>90
B20	yes	>90
B21	yes	>90
B22	yes	>90
B23	yes	>90

Molecular target: pre-pro-insulin glargine

Protein	Purity Insulin Glargine [area %]	Yield [%]	desArg [area %]	desThr [area %]
B1	81.3	> 80	< 0.5	2.1
B2	79.3	> 80	0.8	0.1
B3	86.8	> 90	1	0.3
B4	82.7	> 90	< 0.5	2.6
B5	89.7	> 90	1.2	0.5
B6	88.2	> 90	0.5	1.6
B7	82.4	> 80	< 0.5	2.1
B8	87.5	> 90	< 0.5	2.3
B9	85.2	> 90	< 0.5	3.6
B10	89	> 90	< 0.5	1.2
B11	87.8	> 90	0.7	0.3
B12	88.1	> 90	0.5	1.2
B13	85.1	> 90	0.5	1.6
B14	83.8	> 80	0.6	0.3
B15	83.8	> 80	0.6	0.3
B17	89.5	> 90	0.9	0.2
B18	85.4	> 90	0.6	1.6
B19	83	> 90	< 0.5	2.2
B20	90.1	> 90	0.9	0.5
B21	85.4	> 90	1.1	0.2
B22	84.3	> 90	0.7	1.9
B23	85.3	> 90	< 0.5	2
